Assay results: patent publication US20070224189A1

Biological target: extracellular region of human V158 FcγRIIIa fused with glutathione S-Transferase (GST) (human) (UniProt P08637)
Assay: AlphaScreen competition

Sequence of extracellular region of human V158 FcγRIIIa fused with glutathione S-Transferase (GST) (human) (P08637 17-208 F176V): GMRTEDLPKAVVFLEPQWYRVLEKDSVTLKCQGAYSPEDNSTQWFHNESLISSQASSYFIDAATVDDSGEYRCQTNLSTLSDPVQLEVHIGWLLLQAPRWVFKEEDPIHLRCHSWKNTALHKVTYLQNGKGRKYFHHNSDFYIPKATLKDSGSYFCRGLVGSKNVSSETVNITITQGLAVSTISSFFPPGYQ

| FcγRIIIa Fold [fold vs WT] | Substance |
| --- | --- |
| 0.07 | F241W/F243W alemtuzumab (antibody) |
| 0.06 | F241L/V262I alemtuzumab (antibody) |
| 0.05 | S239E/D265Q alemtuzumab (antibody) |
| 0.04 | Y296N/N297D/I332E alemtuzumab (antibody) |
| 0.03 | T299A alemtuzumab (antibody) |
| 0.05 | F241E/F243R/V262E/V264R alemtuzumab (antibody) |
| 0.05 | V264E/N297D/I332E alemtuzumab (antibody) |
| 0.05 | F241E/F243Y/V262T/V264R alemtuzumab (antibody) |
| 0.06 | S239E/N297D/I332E alemtuzumab (antibody) |
| 0.05 | A327L alemtuzumab (antibody) |
| 0.03 | S239D/D265V/N297D/I332E alemtuzumab (antibody) |
| 0.02 | F241R/F243Q/V262T/V264R alemtuzumab (antibody) |
| 0.04 | S239D/D265H/N297D/I332E alemtuzumab (antibody) |
| 0.07 | F241E/F243Q/V262T/V264E alemtuzumab (antibody) |
| 0.03 | S267Q/A327S alemtuzumab (antibody) |
| 0.07 | L234I/L235D trastuzumab (antibody) |
